# In PMC8710044 (Biochemical pharmacology, 2021):
# T1: CYP2C8 (Homo sapiens, UniProt P10632)
# T1 sequence (P10632 1-490): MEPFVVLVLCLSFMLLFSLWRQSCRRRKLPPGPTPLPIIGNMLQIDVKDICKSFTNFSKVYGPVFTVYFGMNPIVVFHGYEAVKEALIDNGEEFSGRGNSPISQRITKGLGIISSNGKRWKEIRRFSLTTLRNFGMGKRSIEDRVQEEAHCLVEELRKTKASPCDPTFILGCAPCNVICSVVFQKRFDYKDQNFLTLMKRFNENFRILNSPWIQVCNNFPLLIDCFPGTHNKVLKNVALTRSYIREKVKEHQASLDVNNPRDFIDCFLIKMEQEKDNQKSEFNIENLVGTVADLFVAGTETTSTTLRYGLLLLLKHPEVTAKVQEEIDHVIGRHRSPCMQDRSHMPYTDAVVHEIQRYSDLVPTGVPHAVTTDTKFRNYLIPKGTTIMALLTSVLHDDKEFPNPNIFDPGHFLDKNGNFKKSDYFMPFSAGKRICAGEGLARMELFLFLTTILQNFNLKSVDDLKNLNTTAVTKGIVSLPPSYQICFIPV
# Assays:
# CYP2C8 [1] = target: T1, CYP2C8; assay: Steady-state kinetics of overall NSAID metabolism; format: in vitro ADME
# CYP2C19 [2] = target: T2, CYP2C19 (Homo sapiens, UniProt P33261); assay: Steady-state kinetics of overall NSAID metabolism; format: in vitro ADME
# CYP2C9 = CYP2C9 (Homo sapiens, UniProt P11712); assay: Relative CYP contribution to hepatic bioactivation and detoxification, CYP2C9; format: in vitro ADME
# Sequence of CYP2C9 (P11712 whole entry): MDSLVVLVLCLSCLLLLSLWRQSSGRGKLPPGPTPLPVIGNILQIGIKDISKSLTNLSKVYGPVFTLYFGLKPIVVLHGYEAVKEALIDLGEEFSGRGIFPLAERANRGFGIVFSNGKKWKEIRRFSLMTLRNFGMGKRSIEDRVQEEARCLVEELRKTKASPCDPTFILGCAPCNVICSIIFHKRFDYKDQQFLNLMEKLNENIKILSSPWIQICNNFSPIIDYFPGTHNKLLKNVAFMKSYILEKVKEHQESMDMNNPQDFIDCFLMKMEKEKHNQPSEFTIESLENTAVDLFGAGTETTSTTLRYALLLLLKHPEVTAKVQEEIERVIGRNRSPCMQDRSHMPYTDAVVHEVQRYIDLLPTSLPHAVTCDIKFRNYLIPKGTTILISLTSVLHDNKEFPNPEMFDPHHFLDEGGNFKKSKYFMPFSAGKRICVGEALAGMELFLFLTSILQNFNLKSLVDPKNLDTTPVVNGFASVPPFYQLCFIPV
# CYP3A4 [3] = target: T3, CYP3A4 (Homo sapiens, UniProt P08684); assay: Relative CYP contribution to hepatic bioactivation and detoxification, CYP3A4; format: in vitro ADME
# T3 sequence (P08684 whole entry): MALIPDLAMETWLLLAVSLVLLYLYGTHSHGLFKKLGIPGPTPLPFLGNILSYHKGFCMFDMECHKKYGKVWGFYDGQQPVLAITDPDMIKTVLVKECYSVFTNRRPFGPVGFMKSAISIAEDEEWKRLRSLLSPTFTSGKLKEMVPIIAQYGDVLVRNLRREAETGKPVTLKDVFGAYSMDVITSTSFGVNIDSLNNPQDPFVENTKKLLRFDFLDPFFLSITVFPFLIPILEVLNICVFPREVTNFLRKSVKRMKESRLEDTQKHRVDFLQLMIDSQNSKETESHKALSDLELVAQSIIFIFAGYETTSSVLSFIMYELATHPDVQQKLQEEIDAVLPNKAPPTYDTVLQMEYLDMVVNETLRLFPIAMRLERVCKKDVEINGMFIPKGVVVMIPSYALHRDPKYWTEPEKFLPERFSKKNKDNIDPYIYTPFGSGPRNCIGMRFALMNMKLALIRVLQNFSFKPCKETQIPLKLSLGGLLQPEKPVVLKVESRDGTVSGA
# CYP3A4 [4] = target: T3, CYP3A4; assay: Steady-state kinetics of overall NSAID metabolism; format: in vitro ADME
# CYP2C8 [5] = target: T1, CYP2C8; assay: Relative CYP contribution to hepatic bioactivation and detoxification, CYP2C8; format: in vitro ADME
# CYP2C19 [6] = target: T2, CYP2C19; assay: Relative CYP contribution to hepatic bioactivation and detoxification, CYP2C19; format: in vitro ADME
# [7] = substrate: Cc1ccc(Cl)c(Nc2ccccc2C(=O)O)c1Cl; assay: cells, lysate or membranes named; details: 95% CI in parentheses, pH 7.4
# [8] = substrate: Cc1c(Cl)cccc1Nc1ccccc1C(=O)O; assay: cells, lysate or membranes named; details: 95% CI in parentheses, pH 7.4
# [9] = substrate: Cc1ccc(Nc2c(F)cccc2Cl)c(CC(=O)O)c1; assay: cells, lysate or membranes named; details: 95% CI in parentheses, pH 7.4
# [10] = substrate: O=C(O)c1ccccc1Nc1cccc(C(F)(F)F)c1; assay: Steady-state bioactivation kinetics; format: in vitro ADME, human; details: other: CYP2C19; metabolite M2/M4, path 1, 2; 95% CI in parentheses; pH 7.4
# [11] = substrate: Cc1cccc(Nc2ccccc2C(=O)O)c1C; assay: Steady-state bioactivation kinetics; format: in vitro ADME, human; details: other: CYP2C19, path 1, 2, 95% CI in parentheses, pH 7.4
# [12] = substrate: O=C(O)COC(=O)Cc1ccccc1Nc1c(Cl)cccc1Cl; assay: Steady-state bioactivation kinetics; format: in vitro ADME, human; details: other: CYP2C19, 95% CI in parentheses, pH 7.4
# [13] = substrate: O=C(O)c1ccccc1Nc1cccc(C(F)(F)F)c1; assay: Steady-state kinetics of overall NSAID metabolism; format: in vitro ADME, human; details: other: overall metabolism (depletion) by CYP2C19; 95% CI in parentheses; pH 7.4
# [14] = substrate: Cc1cccc(Nc2ccccc2C(=O)O)c1C; assay: Steady-state kinetics of overall NSAID metabolism; format: in vitro ADME, human; details: other: overall metabolism (depletion) by CYP2C19; 95% CI in parentheses; pH 7.4
# [15] = substrate: O=C(O)COC(=O)Cc1ccccc1Nc1c(Cl)cccc1Cl; assay: Steady-state kinetics of overall NSAID metabolism; format: in vitro ADME, human; details: other: overall metabolism (depletion) by CYP2C19; 95% CI in parentheses; pH 7.4
# [16] = other: CYP2C19, metabolite M2/M4, path 1, 2
# [17] = other: CYP2C19, metabolite M6, path 3
# [18] = other: overall metabolism (depletion) by CYP2C19
# [19] = other: CYP2C19, metabolite M2/M4a, path 1, 2
# [20] = other: CYP2C19, metabolite M2/M4b, path 1, 2
# [21] = other: CYP2C19, metabolite M6a, path 3
# [22] = other: CYP2C19, metabolite M6b, path 3
molecule,measurement,setting,value
"O=C(O)Cc1ccccc1Nc1c(Cl)cccc1Cl [DIC, diclofenac]",Km at 60 min,"CYP2C8 [1]; human, recombinant CYP2C8 Supersomes, pH 7.4",83 µM
same,Vmax,"CYP2C8 [1]; overall metabolism (depletion) by CYP2C8, 95% CI in parentheses",1240 (1170–1320) pmol/min/nmol protein
same,Km at 60 min,"CYP2C19 [2]; human, recombinant CYP2C19 Supersomes, pH 7.4",70.5 µM
same,Vmax,"CYP2C19 [2]; overall metabolism (depletion) by CYP2C19, 95% CI in parentheses",1940 (1840–2040) pmol/min/nmol protein
same,Bioactivation Percent,CYP2C9; CYP2C9 contribution to total CLbioact of the NSAID,97.9%
same,Detoxification Percent,CYP2C9; CYP2C9 contribution to total CLdetox of the NSAID,12.0%
same,Bioactivation Percent,CYP3A4 [3]; CYP3A4 contribution to total CLbioact of the NSAID,1.1%
same,Detoxification Percent,CYP3A4 [3]; CYP3A4 contribution to total CLdetox of the NSAID,75.9%
same,Km at 60 min,"CYP3A4 [4]; human, recombinant CYP3A4 Supersomes, pH 7.4",130 µM
same,Vmax,"CYP3A4 [4]; overall metabolism (depletion) by CYP3A4, 95% CI in parentheses",5480 (5090–5930) pmol/min/nmol protein
same,Bioactivation Percent,CYP2C8 [5]; CYP2C8 contribution to total CLbioact of the NSAID,0%
same,Detoxification Percent,CYP2C8 [5]; CYP2C8 contribution to total CLdetox of the NSAID,6.5%
same,Bioactivation Percent,CYP2C19 [6]; CYP2C19 contribution to total CLbioact of the NSAID,1.0%
same,Detoxification Percent,CYP2C19 [6]; CYP2C19 contribution to total CLdetox of the NSAID,5.5%
CYP2C19 (Homo sapiens) (protein) MDPFVVLVLCLSCLLLLSIWRQSSGRGKLPPGPTPLPVIGNILQIDIKDVSKSLTNLSKIYGPVFTLYFGLERMVVLHGYEVVKEALIDLGEEFSGRGHFPLAERANRGFGIVFSNGKRWKEIRRFSLMTLRNFGMGKRSIEDRVQEEARCLVEELRKTKASPCDPTFILGCAPCNVICSIIFQKRFDYKDQQFLNLMEKLNENIRIVSTPWIQICNNFPTIIDYFPGTHNKLLKNLAFMESDILEKVKEHQESMDINNPRDFIDCFLIKMEKEKQNQQSEFTIENLVITAADLLGAGTETTSTTLRYALLLLLKHPEVTAKVQEEIERVIGRNRSPCMQDRGHMPYTDAVVHEVQRYIDLIPTSLPHAVTCDVKFRNYLIPKGTTILTSLTSVLHDNKEFPNPEMFDPRHFLDEGGNFKKSNYFMPFSAGKRICVGEGLARMELFLFLTFILQNFNLKSLIDPKDLDTTPVVNGFASVPPFYQLCFIPV,Km,[7]; [16],5.8 µM
same,kcat,[7]; [16],3.1 (3.0–3.2) pmol/min/nmol protein
same,Km,[7]; [17],18.9 µM
same,kcat,[7]; [17],64.2 (61.2–67.4) pmol/min/nmol protein
same,kcat,"[7]; other: CYP2C19, metabolite M9, path 4",6.1 (5.7–6.4) pmol/min/nmol protein
same,Km,[7]; [18],160 (130–190) μM
same,kcat,[7]; [18],2400 (2210–2610) pmol/min/nmol protein
same,Km,[8]; [19],7.4 µM
same,kcat,[8]; [19],2.6 (2.5–2.7) pmol/min/nmol protein
same,Km,[8]; [20],11 µM
same,kcat,[8]; [20],3.9 (3.8–4.0) pmol/min/nmol protein
same,Km,[8]; [18],110 (94–130) μM
same,kcat,[8]; [18],2070 (1950–2210) pmol/min/nmol protein
same,Km,[9]; [16],36.8 µM
same,kcat,[9]; [16],2.5 (2.4–2.7) pmol/min/nmol protein
same,Km,[9]; [21],47.6 µM
same,kcat,[9]; [21],1.8 (1.7–2.0) pmol/min/nmol protein
same,Km,[9]; [22],115 µM
same,kcat,[9]; [22],2.4 (2.2–2.6) pmol/min/nmol protein
same,Km,[9]; [18],77.2 (64–93) μM
same,kcat,[9]; [18],2610 (2450–2790) pmol/min/nmol protein
same,Km,[10],28.5 µM
same,kcat,[10],7.7 (7.4–8.1) pmol/min/nmol protein
same,Km,[11]; metabolite M2/M4a,10.8 µM
same,kcat,[11]; metabolite M2/M4a,2.0 (1.9–2.1) pmol/min/nmol protein
same,Km,[11]; metabolite M2/M4b,13.6 µM
same,kcat,[11]; metabolite M2/M4b,1.5 (1.4–1.6) pmol/min/nmol protein
same,Km,"[12]; metabolite M2/M4, path 1, 2",18.8 µM
same,kcat,"[12]; metabolite M2/M4, path 1, 2",4.4 (4.2–4.7) pmol/min/nmol protein
same,Km,"[12]; metabolite M6, path 3",74.4 µM
same,kcat,"[12]; metabolite M6, path 3",5.6 (5.2–6.1) pmol/min/nmol protein
same,Km,"[12]; metabolite M9, path 4",8.9 µM
same,kcat,"[12]; metabolite M9, path 4",4.1 (3.9–4.4) pmol/min/nmol protein
same,Km,[13],150 (120–180) μM
same,kcat,[13],2500 (2310–2730) pmol/min/nmol protein
same,Km,[14],220 (180–260) μM
same,kcat,[14],3060 (2830–3320) pmol/min/nmol protein
same,Km,[15],380 (320–460) μM
same,kcat,[15],3050 (2760–3410) pmol/min/nmol protein
